# Paper PMC5770198
# Substrate: O=c1cc(-c2ccccc2)oc2cc(O)cc(O)c12
# Assay: cells, lysate or membranes
# Details: 1 mM NADPH, 100 mM sodium phosphate pH 7.9, 0.5 mM reduced glutathione, 28°C, chrysin 0.1-5 μM
Protein,Km (30 min) [µM],Km (3 min) [µM]
SbCYP82D2 (Scutellaria baicalensis) (protein) MLYDNSQYLAMEFSSAIYGAIAFFLFLYYCLLYTTSSKPNTRAYKAPPEAGGARLFSGHLHLMAGGTTGELPHINLANLADKHGPVFTIRLGVKRALVVSSWESAKELFTTCDVAVSSRPRMKAAKLLGYDFAMFGFAPYGAYWRELRKLISVELLSTRRMELQKEVRDSETRESIKELYKLWEERSEGSDSVLVDMKQWFGDLNLNVVLRMVAGKRWIGPETGRWREVLRDFFYLAGMFVPADAFPFLGWLDLGGHEKRMRQTAKELDGIVGGWVAEHREKEYSGEDKPKDFVDVMLSVVQGSSLRADYDADTIIKATCEALIVGGSDTTTVMLIWTLSFLLNNRHVLRKAQEELDKHVGRERRVNQSDINNLVYLQAIVKETLRLYPAGPIGGIREFTQDCQVGGYHVPKGTWLIVNLWKLHRDPKVWSEDCLEFRPERFLNKNIDVRGQDFELIPFGGGRRICPGANFGLHMLHLVLANLLQAFELTTVSDQVIDMTESAGMTNMKATPLNVLVAPRLSPTLY,1.051,–
SbCYP82D1.1 (Scutellaria baicalensis) (protein) MELSSVIYGAIALLSLFYCYLHFSKPKKSSLNAPPEAGGARFITGHLHLMDGRSASDKLPHINLGLLADQHGPIFTIRLGVHRAVVVSSWELAKEIFTTHDTAVMARPRLIADDYLSYDGASLGFSPYGPYWREIRKLVTTELLSARRIELQRATRVREITQFTGELYKLWEEKKDGSGRVLVDMKQWLGNLSLNLVSRMVVGKRFYGGDDSETTKRWRGVMREFFQLIGQFIPGDGLPFLRWLDLGGFEKRTRDTAYELDKIIAMWLAEYRKREYSGDDKEQCFMALMLSLVQANPTLQLHYDADTIIKATCQVLISAASDTTTVILIWVISLLLNNADVLKKVQEELDEQVGRERRVEESDISNLPYLQAVVKETMRLYPPAPFAGVRAFSEDCTVGGYHIQKGTFLIVNLWKLHRDPRVWSDDALEFKPQRFFDKKVEVKGQDFELMPFGGGRRMCPGSNLGMHMVHFVLANILQAFDITTGSTVDMTESVGLTNMKATPLDAILTPRLSPTLY,–,0.121
